T1: IL-10 receptor (IL-10R), mouse (mouse (endogenous in BMDMs and splenocytes)) (UniProt Q61727)
T1 sequence: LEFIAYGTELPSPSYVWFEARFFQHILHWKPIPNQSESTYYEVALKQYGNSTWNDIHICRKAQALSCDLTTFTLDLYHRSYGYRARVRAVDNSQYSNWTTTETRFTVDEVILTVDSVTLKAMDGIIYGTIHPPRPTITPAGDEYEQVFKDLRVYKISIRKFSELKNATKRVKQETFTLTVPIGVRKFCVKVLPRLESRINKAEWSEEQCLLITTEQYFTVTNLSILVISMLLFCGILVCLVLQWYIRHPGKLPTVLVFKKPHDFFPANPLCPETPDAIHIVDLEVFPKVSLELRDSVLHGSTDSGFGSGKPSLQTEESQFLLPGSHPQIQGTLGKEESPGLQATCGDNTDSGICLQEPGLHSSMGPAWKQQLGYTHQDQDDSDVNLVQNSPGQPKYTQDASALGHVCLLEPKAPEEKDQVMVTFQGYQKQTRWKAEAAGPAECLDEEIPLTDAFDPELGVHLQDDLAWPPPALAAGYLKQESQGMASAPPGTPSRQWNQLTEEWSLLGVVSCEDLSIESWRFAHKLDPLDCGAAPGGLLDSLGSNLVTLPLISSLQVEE


Key:
[1] = biological target: T1, IL-10 receptor (IL-10R), mouse (mouse (endogenous in BMDMs and splenocytes))
[2] = biological target: T1, IL-10 receptor (IL-10R), mouse (mouse (endogenous in BMDMs and splenocytes)); remark: listed apart in the source
[3] = biological target: T1, IL-10 receptor (IL-10R), mouse (mouse (endogenous in BMDMs and splenocytes)); remark: listed apart in the source
[4] = biological target: T1, IL-10 receptor (IL-10R), mouse (mouse (endogenous in BMDMs and splenocytes)); remark: listed apart in the source

| Molecule | ED50 of biological activity, dose-response, data as AUC (Figure 5B) [2] [ng/mL] | ED50, suppression of LPS-induced luciferase in BMDMs (Figure 2H) [3] [ng/mL] | suppression of LPS-induced luciferase in hTNF.LucBAC BMDMs, 10 ng/mL [4] [%] | further results |
| --- | --- | --- | --- | --- |
| natural human IL-10 (non-covalently linked) (from UniProt P22301 19-178) (ligand) |  |  |  | ED50, suppression of LPS-induced luciferase in mouse BMDMs (Figure 8A) [1]: 0.87 ng/mL |
| natural mouse IL-10 with RRCHR changed to ARCHA (from UniProt P18893 19-178) (ligand) | 59.3 |  |  |  |
| natural mouse IL-10 with RRCHR changed to RACHR (from UniProt P18893 19-178) (ligand) | 0.28 |  |  |  |
| commercial mouse IL-10 (ligand) SRGQYSREDNNCTHFPVGQSHMLLELRTAFSQVKTFFQTKDQLDNILLTDSLMQDFKGYLGCQALSEMIQFYLVEVMPQAEKHGPEIKEHLNSLGEKLKTLRMRLRRCHRFLPCENKSKAVEQVKSDFNKLQDQGVYKAMNEFDIFINCIEAYMMIKMKS |  |  | 60 |  |

Further lines, with some results ahead:

| ED50 of biological activity, dose-response, data as AUC (Figure 5B) [2] [ng/mL] | ED50, suppression of LPS-induced luciferase in BMDMs (Figure 2H) [3] [ng/mL] | suppression of LPS-induced luciferase in hTNF.LucBAC BMDMs, 10 ng/mL [4] [%] | Molecule | further results |
| --- | --- | --- | --- | --- |
| 0.96 |  |  | natural mouse IL-10 with RRCHR changed to AACHR (from UniProt P18893 19-178) (ligand) |  |
|  | 0.45 | 60 | stable mouse IL-10 dimer, 7 amino acid linker (-G3SG3-) (ligand) | ED50 of biological activity, dose-response, data as AUC (Figure 5D) [2]: 0.36 ng/mL; ED50, half-maximal suppression of LPS-induced luciferase in hTNF.LucBAC BMDMs (Figure 2C) [4]: 0.04 ng/mL |
|  | 0.4 |  | stable mouse IL-10 dimer, 9 amino acid linker (-G3SG4S-) (ligand) |  |
|  | 0.38 |  | stable mouse IL-10 dimer, 13 amino acid linker (-G3SG4-SG4-) (ligand) |  |
| 0.1 | 1.5 | 60 | natural mouse IL-10 (non-covalently linked) (ligand) SRGQYSREDNNCTHFPVGQSHMLLELRTAFSQVKTFFQTKDQLDNILLTDSLMQDFKGYLGCQALSEMIQFYLVEVMPQAEKHGPEIKEHLNSLGEKLKTLRMRLRRCHRFLPCENKSKAVEQVKSDFNKLQDQGVYKAMNEFDIFINCIEAYMMIKMKS | ED50, half-maximal suppression of LPS-induced luciferase in hTNF.LucBAC BMDMs (Figure 2C) [4]: 0.17 ng/mL |

Source: article PMC7431522
